Measurements as given in PMC3940976 (Scientific Reports, 2014).

B1: intra-Golgi 3Q-SNARE set Sed5p/Gos1p/Sft1p reconstituted on proteoliposomes (complex)
chain 1: MNIKDRTSEFQQSVLSYKKRNKNFREQQRERLQEKESENFANNTTGNGKSVSEFQKKASGIAHEISSTAQLLSKLAVLAKRKPMFNDNPVEIAELSFLIKRKIYAIEQSLVQLSQLKKTDVNGNTSNQSSKQPSAVQHSKNVVNLLNTQMKNISGSFKDVLEERQRLEMANKDRWQKLTTDTGHAPADDQTQSNHAADLTTYNNSNPFMTSLLDESSEKNNNSSNQGELSFPQNDSQLMLMEEGQLSNNVYLQERNRAVETIESTIQEVGNLFQQLASMVQEQGEVIQRIDANVDDIDLNISGAQRELLKYFDRIKSNRWLAAKVFFIIFVFFVIWVLVN
chain 2: MSSQPSFVTIRGKAISLETQTESLLSKYSTFAQTTSSEQTGQEKKIDKQLEGILGQRQDVIDSLTQICDSNPAISASKLSQLHRHKEILQDHWKSFRNIRSSIQQERNRLNLLFSVKNDIANSTTDAPAPIGDADEYIQNETRRIDQSNNVVDRLISQAWETRSQFHSQSNVLNTANNKVLQTLQRIPGVNQLIMKINTRRKKNAFVLATITTLCILFLFFTW
chain 3: MSNSRYSQTESNNDRKLEGLANKLATFRNINQEIGDRAVSDSSVINQMTDSLGSMFTDIKNSSSRLTRSLKAGNSIWRMVGLALLIFFILYTLFKLF
B2: mixed 3Q-SNARE set Sed5p/Vti1p/Tlg1p reconstituted on proteoliposomes (complex)
chain 1: B1 chain 1
chain 2: MSSLLISYESDFKTTLEQAKASLAEAPSQPLSQRNTTLKHVEQQQDELFDLLDQMDVEVNNSIGDASERATYKAKLREWKKTIQSDIKRPLQSLVDSGDRDRLFGDLNASNIDDDQRQQLLSNHAILQKSGDRLKDASRIANETEGIGSQIMMDLRSQRETLENARQTLFQADSYVDKSIKTLKTMTRRLVANKFISYAIIAVLILLILLVLFSKFK
chain 3: […]
B3: His6-tagged Sly1p (natural protein)
chain: MAVEEIASRKDISLRDMQISAILKMLFLNKDLNNNDNITTITDDIFNQQEIIWKVLILDIKSTATISSVLRVNDLLKAGITVHSLIKQDRSPLPDVPAIYFVSPTKENIDIIVNDLKSDKYSEFYINFTSSLPRNLLEDLAQQVSITGKSDKIKQVYDQYLDFIVTEPELFSLEISNAYLTLNDPKTTEEEITGLCANIADGLFNTVLTINSIPIIRAAKGGPAEIIAEKLGTKLRDFVINTNSSSTSTLQGNDSLERGVLIILDRNIDFASMFSHSWIYQCMVFDIFKLSRNTVTIPLESKENGTDNTTAKPLATKKYDIEPNDFFWMENSHLPFPEAAENVEAALNTYKEEAAEITRKTGVTNISDLDPNSNNDTVQIQEVVKKLPELTAKKNTIDTHMNIFAALLSQLESKSLDTFFEVEQDPGSTKTRSRFLDILKDGKTNNLEDKLRSFIVLYLTSTTGLPKDFVQNVENYFKENDYDINALKYVYKLREFMQLSNMSLQNKSLEDGSDSAFKPSNLTLSGIYGLTEGKLQGGVGSLISGIKKLLPEKKTIPITNVVDAIMDPLNSSQKNLETTDSYLYIDPKITRGSHTRKPKRQSYNKSLVFVVGGGNYLEYQNLQEWAHSQLHNPKKVMYGSTAITTPAEFLNEISRLGASNSSNNDA

Tests used:
[1] = molecular target: B3; test: co-sedimentation
[2] = molecular target: mixed 3Q-SNARE set Sed5p/Vti1p/Bet1p reconstituted on proteoliposomes (S. cerevisiae, UniProt Q01590;Q04338;P22804); test: co-sedimentation
[3] = molecular target: mixed 3Q-SNARE set Sed5p/Vti1p/Vam7p reconstituted on proteoliposomes (S. cerevisiae, UniProt Q01590;Q04338;P32912); test: co-sedimentation
[4] = molecular target: T1, ER-Golgi 3Q-SNARE set Sed5p/Bos1p/Bet1p reconstituted on proteoliposomes (S. cerevisiae, UniProt Q01590;P25385;P22804); test: co-sedimentation
T1 sequence 1: B1 chain 1
T1 sequence 2: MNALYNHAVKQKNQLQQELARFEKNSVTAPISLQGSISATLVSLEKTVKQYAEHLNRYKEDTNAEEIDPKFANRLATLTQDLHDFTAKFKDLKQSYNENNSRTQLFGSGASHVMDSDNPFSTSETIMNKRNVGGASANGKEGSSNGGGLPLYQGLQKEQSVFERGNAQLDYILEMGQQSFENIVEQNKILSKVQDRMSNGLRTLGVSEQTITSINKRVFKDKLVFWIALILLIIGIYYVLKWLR
T1 sequence 3: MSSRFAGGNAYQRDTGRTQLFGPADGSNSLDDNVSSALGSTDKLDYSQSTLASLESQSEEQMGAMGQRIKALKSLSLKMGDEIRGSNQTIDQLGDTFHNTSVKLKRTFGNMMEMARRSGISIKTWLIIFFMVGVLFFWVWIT

[5] = molecular target: T2, mixed 3Q-SNARE set Sed5p/Gos1p/Bet1p reconstituted on proteoliposomes (S. cerevisiae, UniProt Q01590;P38736;P22804); test: co-sedimentation
T2 sequence 1: B1 chain 1
T2 sequence 2: B1 chain 2
T2 sequence 3: T1 sequence 3

[6] = molecular target: T3, pre-assembled ER-Golgi cis-QabcR-SNARE complex GST-Sec22p/Sed5p/Bos1p/Bet1p (S. cerevisiae, UniProt P22214;Q01590;P25385;P22804); test: pull-down
T3 sequence 1: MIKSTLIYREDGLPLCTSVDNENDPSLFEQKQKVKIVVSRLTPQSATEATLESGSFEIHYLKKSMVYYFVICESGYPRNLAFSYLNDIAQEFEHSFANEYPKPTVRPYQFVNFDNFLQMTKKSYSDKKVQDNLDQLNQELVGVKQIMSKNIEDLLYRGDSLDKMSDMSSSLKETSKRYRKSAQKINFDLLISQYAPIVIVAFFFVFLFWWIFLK
T3 sequence 2: B1 chain 1
T3 sequence 3: T1 sequence 2
T3 sequence 4: T1 sequence 3

[7] = molecular target: T4, pre-assembled intra-Golgi cis-QabcR-SNARE complex GST-Sec22p/Sed5p/Gos1p/Sft1p (S. cerevisiae, UniProt P22214;Q01590;P38736;P43682); test: pull-down
T4 sequence 1: T3 sequence 1
T4 sequence 2: B1 chain 1
T4 sequence 3: B1 chain 2
T4 sequence 4: B1 chain 3

mixed 3Q-SNARE set Sed5p/Vti1p/Vam7p reconstituted on proteoliposomes, sequence (P32912 whole entry, one chain of several): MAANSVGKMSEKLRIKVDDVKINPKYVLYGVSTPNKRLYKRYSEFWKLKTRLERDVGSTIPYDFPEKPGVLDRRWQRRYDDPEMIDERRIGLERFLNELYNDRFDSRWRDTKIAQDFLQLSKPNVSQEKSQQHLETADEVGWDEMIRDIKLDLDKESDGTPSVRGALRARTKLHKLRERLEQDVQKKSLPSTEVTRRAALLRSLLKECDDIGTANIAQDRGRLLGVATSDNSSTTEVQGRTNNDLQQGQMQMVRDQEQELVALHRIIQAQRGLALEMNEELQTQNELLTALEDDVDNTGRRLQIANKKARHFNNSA

Binder	binding result [1]	binding result [2]	binding result [3]	binding result [4]	binding result [5]	binding result [6]	binding result [7]
B1	binds	–	–	–	–	–	–
B2	binds	–	–	–	–	–	–
B3	–	binds	binds	binds	binds	binds	binds
